Data on 83 sequences can be found in the supplement of paper PMC7877785.

± gives the uncertainty stated by the source.

This data set in a line: self-splicing fitness, log relative to wild type (ln ratio); higher = more splicing; Tetrahymena group I intron in knt gene, E. coli kanamycin selection, DiMSum; sequences stand for … in CUCUCU…GGAGGGAAAAGUUAUCAGGCAUGCACCUGGUAGCUAGUCUUUAAACCAAUAGAUUGCAUCGGUUUAAAAGGCAAGACCGUCAAAUUGCGGGAAAGGGGUCAACAGCCGUUCAGUACCAAGUCUCAGGGGAAACUUUGAGAUGGCCUUGCAAAGGGUAUGGUAAUAAGCUGACGGACAUGGUCCUAACCACGCAGCCAAGUCCUAAGUCAACAGAUCUUCUGUUGAUAUGGAUGCAGUUCACAGACUAAAUGUCGGUCGGGGAAGAUGUAUUCUUCUCAUAAGAUAUAGUCGGACCUCUCCUUAAUGGGAGCUAGCGGAUGAAGUGAUGCAACACUGGAGCCGCUGGGAACUAAUUUGUAUGCGAAAGUAUAUUGAUUAGUUUUGGAGUACUCGUGGUCG
The gist of the method:
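Colonies from six replicate transformations of E. coli BL21(DE3) were pooled and amplicon-sequenced on an Illumina HiSeq 2500. The library placed an intron with all eight P1ex-region nucleotides randomised inside the knt kanamycin-resistance gene on pET-22b(+), and cells grew overnight at 37°C or 30°C on LB agar with or without 25 μg/mL kanamycin (plus 100 μg/mL carbenicillin, 50 μM IPTG, 0.2% rhamnose). Fitness is the DiMSum error-weighted combination of wild-type-normalised replicate fold changes, kanamycin versus none.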

As to UUGGAGCAAUAUUACGACGG, the “self-splicing fitness (ln)” value runs as follows: (30 °C) 0.664 ± 0.22; (37 °C) -0.775 ± 0.29.
UUGGAGCAAUAUUACGAUAG: where the note is “30 °C”, the “self-splicing fitness (ln)” value is -2.56 ± 0.37.
With UUGGAGCAAUAUUACGCCGG, the “self-splicing fitness (ln)” value (37 °C) is -1.08 ± 0.34.
Regarding UUGGAGCAAUAUUACGCGGU, the “self-splicing fitness (ln)” value (30 °C) was -2.83 ± 0.26 and the “self-splicing fitness (ln)” value (37 °C) was -2.14 ± 0.38.
For UUGGAGCAAUAUUACGGCAG the same measures were -1.6 ± 0.17 and -1.01 ± 0.22.
Take UUGGAGCAAUAUUACGGGAU: under “37 °C”, the “self-splicing fitness (ln)” value was -2.77 ± 0.4.
For UUGGAGCAAUAUUACGUAUC, the “self-splicing fitness (ln)” value (30 °C) is -2.95 ± 0.2.
Turning to UUGGAGCAAUAUUACGUAUU, the “self-splicing fitness (ln)” value is -4.53 ± 0.39 (30 °C) and -1.7 ± 0.22 (37 °C).
Turning to UUGGAGCAAUAUUACGUCUU, for the setting “37 °C”, the “self-splicing fitness (ln)” value is -2.09 ± 0.5.
UUGGAGCAAUAUUACGUGUU: the “self-splicing fitness (ln)” value is -2.58 ± 0.2 (30 °C) and -2.79 ± 0.33 (37 °C).
In the case of UUGGAGCAAUAUUACGUUGG, the “self-splicing fitness (ln)” value was -1.5 ± 0.27 (30 °C) and -2.92 ± 0.28 (37 °C).
For UUGUAGCAAUAUUACGAAAA the same measures were -1.86 ± 0.17 and -0.986 ± 0.19.
As for UUGUAGCAAUAUUACGAAAU, the “self-splicing fitness (ln)” value (30 °C) was -3.24 ± 0.46 and the “self-splicing fitness (ln)” value (37 °C) was -2.15 ± 0.4.
Consider UUGUAGCAAUAUUACGAACU, for which the “self-splicing fitness (ln)” value reads like this: (30 °C) -2.24 ± 0.11; (37 °C) 0.102 ± 0.1.
Take UUGUAGCAAUAUUACGAUCC: under “37 °C”, the “self-splicing fitness (ln)” value is -0.641 ± 0.37.
On to UUGUAGCAAUAUUACGAUUU, for which the “self-splicing fitness (ln)” value reads like this: (30 °C) -3.15 ± 0.25; (37 °C) -1.91 ± 0.24.
The matching figures for UUGUAGCAAUAUUACGCAUC: -3.41 ± 0.34 and -3.19 ± 0.43.
Turning to UUGUAGCAAUAUUACGCCAA, the “self-splicing fitness (ln)” value (30 °C) is -1.22 ± 0.13 and the “self-splicing fitness (ln)” value (37 °C) is -0.297 ± 0.13.
The matching figures for UUGUAGCAAUAUUACGCCUG: 0.32 ± 0.14 and 0.399 ± 0.15.
The matching figures for UUGUAGCAAUAUUACGCGGG: -3 ± 0.25 and -2.32 ± 0.16.
The matching figures for UUGUAGCAAUAUUACGGACA: -1.61 ± 0.31 and -0.454 ± 0.39.
Consider UUGUAGCAAUAUUACGGCCG, for which the “self-splicing fitness (ln)” value is, setting by setting: (30 °C) -0.356 ± 0.17; (37 °C) -0.462 ± 0.22.
The matching figures for UUGUAGCAAUAUUACGGUCU: -2.53 ± 0.21 and -1.53 ± 0.17.
With UUGUAGCAAUAUUACGGUUG, the “self-splicing fitness (ln)” value runs as follows: (30 °C) -2.38 ± 0.12; (37 °C) -0.9 ± 0.12.
For UUGUAGCAAUAUUACGUACA the same measures were -1.51 ± 0.2 and -0.822 ± 0.17.
The matching figures for UUGUAGCAAUAUUACGUCUG: -0.639 ± 0.067 and 0.19 ± 0.086.
On to UUGUAGCAAUAUUACGUUUU, for which the “self-splicing fitness (ln)” value was -2.52 ± 0.24 (30 °C) and -1.98 ± 0.17 (37 °C).
For UUUAAGCAAUAUUACGAACU the same measures were -2.51 ± 0.23 and -1.98 ± 0.23.
Regarding UUUAAGCAAUAUUACGACAC, the “self-splicing fitness (ln)” value (30 °C) was -2.23 ± 0.44.
As for UUUAAGCAAUAUUACGACCU, the “self-splicing fitness (ln)” value by setting is: (30 °C) -1.72 ± 0.21; (37 °C) -1.3 ± 0.18.
As for UUUAAGCAAUAUUACGAGCC, the “self-splicing fitness (ln)” value (30 °C) was -1.83 ± 0.36.
Turning to UUUAAGCAAUAUUACGAGUC, the “self-splicing fitness (ln)” value (37 °C) was -2.65 ± 0.48.
Turning to UUUAAGCAAUAUUACGAUAU, the “self-splicing fitness (ln)” value by setting is: (30 °C) -2.91 ± 0.14; (37 °C) -1.52 ± 0.14.
The matching figures for UUUAAGCAAUAUUACGAUUU: -1.92 ± 0.16 and -0.754 ± 0.13.
The matching figures for UUUAAGCAAUAUUACGCAAU: -2.5 ± 0.24 and -1.55 ± 0.23.
On to UUUAAGCAAUAUUACGCACC, for which the “self-splicing fitness (ln)” value is -2.05 ± 0.21 (30 °C) and -0.66 ± 0.22 (37 °C).
In the case of UUUAAGCAAUAUUACGCAUG, the “self-splicing fitness (ln)” value (30 °C) is -1.07 ± 0.089 and the “self-splicing fitness (ln)” value (37 °C) was -0.408 ± 0.099.
For the sequence UUUAAGCAAUAUUACGCGUC, the “self-splicing fitness (ln)” value is -1.9 ± 0.18 (30 °C) and -1.77 ± 0.25 (37 °C).
For UUUAAGCAAUAUUACGCUCC the same measures were -2.1 ± 0.22 and -0.172 ± 0.29.
Regarding UUUAAGCAAUAUUACGCUUA, the “self-splicing fitness (ln)” value (37 °C) is -3.03 ± 0.33.
In the case of UUUAAGCAAUAUUACGGAAG, the “self-splicing fitness (ln)” value runs as follows: (30 °C) -2.97 ± 0.26; (37 °C) -1.37 ± 0.3.
Consider UUUAAGCAAUAUUACGGAGC, for which the “self-splicing fitness (ln)” value runs as follows: (30 °C) -1.94 ± 0.25; (37 °C) -1.43 ± 0.47.
As for UUUAAGCAAUAUUACGGAUC, under “30 °C”, the “self-splicing fitness (ln)” value is -1.33 ± 0.43.
Turning to UUUAAGCAAUAUUACGGUGC, the “self-splicing fitness (ln)” value was -3.88 ± 0.46 (30 °C) and -2.01 ± 0.47 (37 °C).
The matching figures for UUUAAGCAAUAUUACGUAUG: -1.44 ± 0.13 and -0.482 ± 0.16.
The matching figures for UUUAAGCAAUAUUACGUCGG: -0.492 ± 0.079 and -0.762 ± 0.089.
Take UUUAAGCAAUAUUACGUGUC: the “self-splicing fitness (ln)” value reads like this: (30 °C) -3.99 ± 0.33; (37 °C) -2.65 ± 0.25.
As to UUUCAGCAAUAUUACGAGGC, the “self-splicing fitness (ln)” value (30 °C) is -2.12 ± 0.22.
For UUUCAGCAAUAUUACGAGGG, the “self-splicing fitness (ln)” value is, setting by setting: (30 °C) -3.94 ± 0.25; (37 °C) -1.02 ± 0.13.
For UUUCAGCAAUAUUACGCAGA the same measures were -1.32 ± 0.27 and -1.6 ± 0.24.
Turning to UUUCAGCAAUAUUACGCAGG, the “self-splicing fitness (ln)” value is, setting by setting: (30 °C) -2.53 ± 0.18; (37 °C) -1.65 ± 0.23.
On to UUUCAGCAAUAUUACGCAUA, for which the “self-splicing fitness (ln)” value reads like this: (30 °C) -2.13 ± 0.21; (37 °C) -0.691 ± 0.17.
As for UUUCAGCAAUAUUACGCCCC, the “self-splicing fitness (ln)” value (30 °C) was -1.57 ± 0.3.
Regarding UUUCAGCAAUAUUACGCUGA, the “self-splicing fitness (ln)” value by setting is: (30 °C) -3.32 ± 0.47; (37 °C) -2.24 ± 0.42.
For UUUCAGCAAUAUUACGCUUC, the “self-splicing fitness (ln)” value by setting is: (30 °C) -0.771 ± 0.21; (37 °C) -2.33 ± 0.38.
In the case of UUUCAGCAAUAUUACGUCAG, the “self-splicing fitness (ln)” value reads like this: (30 °C) -0.968 ± 0.089; (37 °C) -0.726 ± 0.12.
For UUUCAGCAAUAUUACGUCGA the same measures were -1.11 ± 0.11 and -1.25 ± 0.12.
For UUUCAGCAAUAUUACGUGCC the same measures were -3.44 ± 0.25 and -1.57 ± 0.23.
With UUUCAGCAAUAUUACGUGUA, the “self-splicing fitness (ln)” value is -2.47 ± 0.12 (30 °C) and -1.57 ± 0.1 (37 °C).
For the sequence UUUCAGCAAUAUUACGUUCU, the “self-splicing fitness (ln)” value (37 °C) was -1.89 ± 0.21.
On the same count and under the same terms, for UUUCAGCAAUAUUACGUUGA the value was -1.85 ± 0.34.
In the case of UUUCAGCAAUAUUACGUUGU, the “self-splicing fitness (ln)” value is, setting by setting: (30 °C) -3.23 ± 0.21; (37 °C) -2.06 ± 0.15.
The matching figures for UUUCAGCAAUAUUACGUUUU: -3.86 ± 0.23 and -1.13 ± 0.14.
Regarding UUUGAGCAAUAUUACGAGCG, the “self-splicing fitness (ln)” value (37 °C) is -1.88 ± 0.35.
Regarding UUUGAGCAAUAUUACGCAAA, the “self-splicing fitness (ln)” value runs as follows: (30 °C) -2.8 ± 0.25; (37 °C) -2.25 ± 0.21.
In the case of UUUGAGCAAUAUUACGCCAA, for the setting “37 °C”, the “self-splicing fitness (ln)” value is -1.56 ± 0.27.
Consider UUUGAGCAAUAUUACGCCGA, for which the “self-splicing fitness (ln)” value is, setting by setting: (30 °C) -2.3 ± 0.42; (37 °C) -1.61 ± 0.41.
In the case of UUUGAGCAAUAUUACGCCUC, where the note is “37 °C”, the “self-splicing fitness (ln)” value was -0.879 ± 0.39.
As for UUUGAGCAAUAUUACGCGAC, the “self-splicing fitness (ln)” value (30 °C) was -2.15 ± 0.35.
For the sequence UUUGAGCAAUAUUACGGACU, the “self-splicing fitness (ln)” value was -4.55 ± 0.34 (30 °C) and -2.99 ± 0.23 (37 °C).
For UUUGAGCAAUAUUACGGCCU the same measures were -3.9 ± 0.4 and 0.167 ± 0.26.
As to UUUGAGCAAUAUUACGGCGC, the “self-splicing fitness (ln)” value (30 °C) is -2.21 ± 0.35.
Take UUUGAGCAAUAUUACGGGGU: the “self-splicing fitness (ln)” value (37 °C) is -2.11 ± 0.26.
UUUGAGCAAUAUUACGGUCA: the “self-splicing fitness (ln)” value is, setting by setting: (30 °C) -1.47 ± 0.28; (37 °C) -3.07 ± 0.4.
For UUUGAGCAAUAUUACGGUCG the same measures were -3.78 ± 0.21 and -1.73 ± 0.19.
UUUGAGCAAUAUUACGUCGG: the “self-splicing fitness (ln)” value by setting is: (30 °C) -3.06 ± 0.21; (37 °C) -1.28 ± 0.18.
The matching figures for UUUGAGCAAUAUUACGUCUU: -3.77 ± 0.32 and -3.16 ± 0.43.
The matching figures for UUUGAGCAAUAUUACGUUGG: -3.37 ± 0.28 and -2.26 ± 0.26.
As to UUUGAGCAAUAUUACGUUUU, the “self-splicing fitness (ln)” value (30 °C) was -3.55 ± 0.19 and the “self-splicing fitness (ln)” value (37 °C) is -2.65 ± 0.17.
In the case of UUUUAGCAAUAUUACGACCA, the “self-splicing fitness (ln)” value is -0.399 ± 0.34 (30 °C) and -0.577 ± 0.37 (37 °C).
The matching figures for UUUUAGCAAUAUUACGACCG: 1.81 ± 0.28 and -1.19 ± 0.4.
The matching figures for UUUUAGCAAUAUUACGAGUG: -1.75 ± 0.13 and -1.26 ± 0.13.
Take UUUUAGCAAUAUUACGAGUU: the “self-splicing fitness (ln)” value (37 °C) is -0.193 ± 0.24.
